Laboratory results taken from article PMC3017672 (Journal of molecular biology, 2010).

Target: the molecule itself
Experiment: cryo-EM structure

B1: bacteriophage 80α capsid protein gp47 (natural protein, Staphylococcus aureus bacteriophage 80α, UniProt A4ZFB3 15-324, looked up)
chain: ASNNVKPQVFNPDNVMMHEKKDGTLMNEFTTPILQEVMENSKIMQLGKYEPMEGTEKKFTFWADKPGAYWVGEGQKIETSKATWVNATMRAFKLGVILPVTKEFLNYTYSQFFEEMKPMIAEAFYKKFDEAGILNQGNNPFGKSIAQSIEKTNKVIKGDFTQDNIIDLEALLEDDELEANAFISKTQNRSLLRKIVDPETKERIYDRNSDSLDGLPVVNLKSSNLKRGELITGDFDKLIYGIPQLIEYKIDETAQLSTVKNEDGTPVNLFEQDMVALRATMHVALHIADDKAFAKLVPADKRTDSVPGEV
stoichiometry N: 420 copies
